Data on six molecules can be found in publication PMC10411744 (PLOS Pathogens, 2023).

In test [1] the target is X31 (H3N2) trimeric full-length HA (prefusion stabilized HA) (influenza A virus X31 (H3N2), biotin (biotinylated for capture on streptavidin)). The experiment in a line: ELISA. To be noted: both partners purified. In general terms: An ELISA detects its analyte on a solid surface through an enzyme-linked reagent.
For another test, the target named is HA of H1 A/Narita/1/2009 (influenza A virus A/Narita/1/2009 (H1)). The test is described as follows: ELISA. The conditions noted are these: both partners purified.

B1: LAH31 with light chain position 92 reverted to germline (R92L) (antibody, V domains shown)
VH: QVQLEQSGAEVKKPGSSVKVSCKASGPMFSRSAFSWVRQAPGQGLEWMGRIIPTVDLKNYAQKFQGRVTFTADKSTATSYMELRSLKSEDTAVYYCARMGSGSSYYGMDVWGLGTTVTVSS
VL: DIVMTQSPLSLPVIPGEPASISCRSSQSLLQSNGNNYLDWYLQKPGQSPQLLIYLGSNRASGVPDRFSGSGSGTDFTLTISRVEAEDVGVYYCLQALQSSVLTFGGGTKLEIK
notes: IgG1
With B1, the binding result in test [1] was “binds”.

B2: LAH31 mouse IgG2c LALA-PG mutant (antibody, V domains shown)
VH: QVQLEQSGAEVKKPGSSVKVSCKASGPMFSRSAFSWVRQAPGQGLEWMGRIIPTVDLKNYAQKFQGRVTFTADKSTATSYMELRSLKSEDTAVYYCARMGSGSSYYGMDVWGLGTTVTVSS
VL: DIVMTQSPLSLPVIPGEPASISCRSSQSLLQSNGNNYLDWYLQKPGQSPQLLIYLGSNRASGVPDRFSGSGSGTDFTLTISRVEAEDVGVYYCLQARQSSVLTFGGGTKLEIK
Turning to B2, in test [1], the binding result was “binds”.

B3: LAH31 with light chain position 94 reverted to germline (Ser94 to Thr94) (antibody, V domains shown)
VH: QVQLEQSGAEVKKPGSSVKVSCKASGPMFSRSAFSWVRQAPGQGLEWMGRIIPTVDLKNYAQKFQGRVTFTADKSTATSYMELRSLKSEDTAVYYCARMGSGSSYYGMDVWGLGTTVTVSS
VL: DIVMTQSPLSLPVIPGEPASISCRSSQSLLQSNGNNYLDWYLQKPGQSPQLLIYLGSNRASGVPDRFSGSGSGTDFTLTISRVEAEDVGVYYCLQARQTSVLTFGGGTKLEIK
On to B3, for which the binding result (with HA of H1 A/Narita/1/2009; in test [1]) was “binds” each time.

B4: LAH31 with light chain position 95 reverted to germline (Ser95 to Pro95) (antibody, V domains shown)
VH: QVQLEQSGAEVKKPGSSVKVSCKASGPMFSRSAFSWVRQAPGQGLEWMGRIIPTVDLKNYAQKFQGRVTFTADKSTATSYMELRSLKSEDTAVYYCARMGSGSSYYGMDVWGLGTTVTVSS
VL: DIVMTQSPLSLPVIPGEPASISCRSSQSLLQSNGNNYLDWYLQKPGQSPQLLIYLGSNRASGVPDRFSGSGSGTDFTLTISRVEAEDVGVYYCLQARQSPVLTFGGGTKLEIK
In the case of B4, the binding result (in the test with HA of H1 A/Narita/1/2009; in test [1]) was “binds” each time.

B5: LAH31 mouse IgG2c LALA mutant (antibody, V domains shown)
VH: QVQLEQSGAEVKKPGSSVKVSCKASGPMFSRSAFSWVRQAPGQGLEWMGRIIPTVDLKNYAQKFQGRVTFTADKSTATSYMELRSLKSEDTAVYYCARMGSGSSYYGMDVWGLGTTVTVSS
VL: DIVMTQSPLSLPVIPGEPASISCRSSQSLLQSNGNNYLDWYLQKPGQSPQLLIYLGSNRASGVPDRFSGSGSGTDFTLTISRVEAEDVGVYYCLQARQSSVLTFGGGTKLEIK
In the case of B5, in test [1], the binding result was “binds”.

B6: LAH31 mouse IgG2c KA mutant (antibody, V domains shown)
VH: QVQLEQSGAEVKKPGSSVKVSCKASGPMFSRSAFSWVRQAPGQGLEWMGRIIPTVDLKNYAQKFQGRVTFTADKSTATSYMELRSLKSEDTAVYYCARMGSGSSYYGMDVWGLGTTVTVSS
VL: DIVMTQSPLSLPVIPGEPASISCRSSQSLLQSNGNNYLDWYLQKPGQSPQLLIYLGSNRASGVPDRFSGSGSGTDFTLTISRVEAEDVGVYYCLQARQSSVLTFGGGTKLEIK
In the case of B6, the binding result in test [1] is reported as “binds”.
